Tests used:
Format in all cases: biochemical
[1] = test system: CC(C)C[C@H](N)C(=O)O; assay: ATP-PPi exchange assay, WT LRS; details: other: absence of tRNA^Leu (ATP-PPi exchange); pH 7.6; 37.0 °C
Method: The ATP-PPi exchange reaction was performed in a reaction mixture containing 2 mM [^32P]pyrophosphate (PPi) (80.70 mCi/mL), 50 mM HEPES-KOH (pH 7.6), 2 mM MgCl2, 8 mM KF, 4 mM ATP, and various concentrations of leucine and 25 nM of LRS. Reaction were initiated with enzymes and conducted in a 37° C. heat block. Aliquots (10 ul) were taken at different time points, and the reactions were stopped using lml of quenching buffer (50 mM NaPPi, 3.5% HC1O4, 2% activated charcoal). The charcoal suspension was filtered through a Whatman GF/A filter, washed four times with 5 ml of water and rinsed with 10 ml of 100% ethanol. The charcoal powder on the filters was dried, and the synthesized [^32P]ATP was counted using a scintillation counter (Beckman Coulter).

[2] = test system: T1, CC(C)C[C@H](N)C(=O)O; assay: Leucylation assay, LRS F50A/Y52A mutant; details: other: LRS F50A/Y52, leucylation, substrate leucine; pH 7.6; 37.0 °C
T1 construct: made in house
Method: (§1) In FIG. 5b, leucylations by LRS WT and mutants (F50A/Y52A, F50A, and Y52A) were carried out by using 4 μM tRNALeu and 50 nM enzymes.
(§2) The leucylation assay was carried out in a buffer containing 1 mM spermine, 50 mM HEPES-KOH (pH7.6), 25 mM KCl, 5 mM MgCl2, 4 mM ATP, 2 mg/ml bovine liver tRNA^Leu, various concentrations of [^3H]Leu (60 Ci/mmol), and 10-100 nM of LRS. Reactions were initiated with enzyme and conducted in a 37° C. heat block. Aliquots (10 ul) were taken at different time points and quenched on Whatman filter pads that were presoaked with 5% trichloroacetic acid (TCA). The pads were washed three times for 10 min each with cold 5% TCA, and once with cold 100% ethanol. The washed pads were then dried. Radioactivity was quantified in a scintillation counter (Beckman Coulter)

[3] = test system: CC(C)C[C@H](N)C(=O)O; assay: Leucylation assay, LRS WT; details: pH 7.6, 37.0 °C
Method: as §1, §2

[4] = other: LRS WT, leucylation, substrate leucine

Chain of LRS WT (Homo sapiens) (chain, as listed by the source): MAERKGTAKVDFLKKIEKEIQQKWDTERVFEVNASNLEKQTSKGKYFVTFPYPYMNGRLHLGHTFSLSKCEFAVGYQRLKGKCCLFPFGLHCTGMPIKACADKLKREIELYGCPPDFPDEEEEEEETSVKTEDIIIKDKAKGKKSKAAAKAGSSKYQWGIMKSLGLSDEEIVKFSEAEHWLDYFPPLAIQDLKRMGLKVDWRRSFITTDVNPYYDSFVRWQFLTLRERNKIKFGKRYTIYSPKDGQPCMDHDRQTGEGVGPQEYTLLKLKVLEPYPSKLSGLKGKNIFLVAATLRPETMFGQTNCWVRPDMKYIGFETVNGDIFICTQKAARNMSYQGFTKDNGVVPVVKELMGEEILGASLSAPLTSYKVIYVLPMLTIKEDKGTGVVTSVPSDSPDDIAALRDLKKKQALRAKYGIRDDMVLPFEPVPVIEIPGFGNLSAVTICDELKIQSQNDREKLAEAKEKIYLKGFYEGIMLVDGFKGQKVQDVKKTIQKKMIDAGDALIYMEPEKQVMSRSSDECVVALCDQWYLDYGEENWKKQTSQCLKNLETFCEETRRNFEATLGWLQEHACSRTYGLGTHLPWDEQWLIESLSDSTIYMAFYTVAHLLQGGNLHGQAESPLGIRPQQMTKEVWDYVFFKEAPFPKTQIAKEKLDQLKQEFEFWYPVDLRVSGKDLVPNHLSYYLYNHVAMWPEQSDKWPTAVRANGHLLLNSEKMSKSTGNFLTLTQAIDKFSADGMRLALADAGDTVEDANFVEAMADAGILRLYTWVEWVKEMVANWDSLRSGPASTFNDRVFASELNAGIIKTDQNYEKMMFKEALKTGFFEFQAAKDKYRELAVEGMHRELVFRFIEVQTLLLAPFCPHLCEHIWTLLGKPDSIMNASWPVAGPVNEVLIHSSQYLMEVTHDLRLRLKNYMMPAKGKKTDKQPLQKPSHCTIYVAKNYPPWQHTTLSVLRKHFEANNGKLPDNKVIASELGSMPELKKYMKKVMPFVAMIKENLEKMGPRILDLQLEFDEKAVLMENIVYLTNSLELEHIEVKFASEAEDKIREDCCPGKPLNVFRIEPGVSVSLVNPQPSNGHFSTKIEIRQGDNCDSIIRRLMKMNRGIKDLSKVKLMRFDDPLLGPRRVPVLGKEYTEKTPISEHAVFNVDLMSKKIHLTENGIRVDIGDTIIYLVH
Chain of LRS (Homo sapiens) (chain, as listed by the source): as above
Chain of LRS F50A/Y52 (Homo sapiens; F50A/Y52A) (chain, as listed by the source F50A F50A Y52A): as the sequence (chain, as listed by the source) above, with F50A, Y52A counted along it

How did the Km [1] turn out when LRS (Homo sapiens) was run?
Its Km is 143 ± 61 µM.

LRS F50A/Y52 (Homo sapiens; F50A/Y52A) was tested. Which Km [2] did it give?
Its Km is 536 ± 63 µM.

Which results are given for LRS WT (Homo sapiens)?
Km [3, 4]: 15.9 ± 0.4 µM; kcat [3, 4]: 0.368 ± 0.009 s⁻¹; kcat/Km [3, 4]: 22900 ± 570 M⁻¹ s⁻¹; Km ([3]; other: presence of tRNA^Leu (leucylation)): 15.9 ± 0.4 µM
